In US20200165325A1:

Legend:
[1] = target: Env (gp120) of HIV-1 strain 0815.v3.c3 (HIV-1)
[2] = target: Env (gp120) of HIV-1 strain 231965.c01 (HIV-1)
[3] = target: Env (gp120) of HIV-1 strain 231966.c02 (HIV-1)
[4] = target: Env (gp120) of HIV-1 strain 3016.v5.c45 (HIV-1)
[5] = target: Env (gp120) of HIV-1 strain 3718.v3.c11 (HIV-1)
[6] = target: Env (gp120) of HIV-1 strain 6480.v4.c25 (HIV-1)
[7] = target: Env (gp120) of HIV-1 strain 6535.3 (HIV-1)
[8] = target: Env (gp120) of HIV-1 strain C2101.c01 (HIV-1)
[9] = target: Env (gp120) of HIV-1 strain CNE17 (HIV-1)
[10] = target: Env (gp120) of HIV-1 strain CNE20 (HIV-1)
[11] = target: Env (gp120) of HIV-1 strain CNE21 (HIV-1)
[12] = target: Env (gp120) of HIV-1 strain Ce0393_C3 (HIV-1)
[13] = target: Env (gp120) of HIV-1 strain Ce1176_A3 (HIV-1)
[14] = target: Env (gp120) of HIV-1 strain Ce2010_F5 (HIV-1)
[15] = target: Env (gp120) of HIV-1 strain Ce703010054_2A2 (HIV-1)
[16] = target: Env (gp120) of HIV-1 strain Du172.17 (HIV-1)
[17] = target: Env (gp120) of HIV-1 strain Du422.1 (HIV-1)
[18] = target: Env (gp120) of HIV-1 strain HIV-16845-2.22 (HIV-1)
[19] = target: Env (gp120) of HIV-1 strain P0402_c2_11 (HIV-1)
[20] = target: Env (gp120) of HIV-1 strain P1981_C5_3 (HIV-1)
[21] = target: Env (gp120) of HIV-1 strain Q461.e2 (HIV-1)
[22] = target: Env (gp120) of HIV-1 strain Q842.d12 (HIV-1)
[23] = target: Env (gp120) of HIV-1 strain QH0692.42 (HIV-1)
[24] = target: Env (gp120) of HIV-1 strain R2184.c04 (HIV-1)
[25] = target: Env (gp120) of HIV-1 strain REJO4541.67 (HIV-1)
[26] = target: Env (gp120) of HIV-1 strain T250-4 (HIV-1)
[27] = target: Env (gp120) of HIV-1 strain T255-34 (HIV-1)
[28] = target: Env (gp120) of HIV-1 strain T257-31 (HIV-1)
[29] = target: Env (gp120) of HIV-1 strain T278-50 (HIV-1)
[30] = target: Env (gp120) of HIV-1 strain THRO4156.18 (HIV-1)
[31] = target: Env (gp120) of HIV-1 strain TRJO4551.58 (HIV-1)
[32] = target: Env (gp120) of HIV-1 strain WITO4160.33 (HIV-1)
[33] = target: Env (gp120) of HIV-1 strain X2131_C1_B5 (HIV-1)
[34] = target: Env (gp120) of HIV-1 strain ZM214M.PL15 (HIV-1)
[35] = target: Env (gp120) of HIV-1 strain ZM53M.PB12 (HIV-1)

Substance	neutralization IC50 [1] [µg/mL]	neutralization IC50 [2] [µg/mL]	neutralization IC50 [3] [µg/mL]	neutralization IC50 [4] [µg/mL]	neutralization IC50 [5] [µg/mL]	neutralization IC50 [6] [µg/mL]	neutralization IC50 [7] [µg/mL]	neutralization IC50 [8] [µg/mL]	neutralization IC50 [9] [µg/mL]	neutralization IC50 [10] [µg/mL]	neutralization IC50 [11] [µg/mL]	neutralization IC50 [12] [µg/mL]	neutralization IC50 [13] [µg/mL]	neutralization IC50 [14] [µg/mL]	neutralization IC50 [15] [µg/mL]	neutralization IC50 [16] [µg/mL]	neutralization IC50 [17] [µg/mL]	neutralization IC50 [18] [µg/mL]	neutralization IC50 [19] [µg/mL]	neutralization IC50 [20] [µg/mL]	also measured
NIH45-46 IgG (antibody)	0.014	0.051	1.64	> 50	19.6	0.032	0.23	4.24	0.261	7.83	6.01	0.334	0.93	0.101	0.159	> 50	> 50	5	0.073	0.08	neutralization IC50 [21]: 0.076 µg/mL; neutralization IC50 [22]: 0.031 µg/mL; neutralization IC50 [23]: 0.72 µg/mL; neutralization IC50 [24]: 0.034 µg/mL; neutralization IC50 [25]: 0.014 µg/mL; neutralization IC50 [26]: > 50 µg/mL; neutralization IC50 [27]: 0.71 µg/mL; neutralization IC50 [28]: 0.49 µg/mL; neutralization IC50 [29]: > 50 µg/mL; neutralization IC50 [30]: 1.91 µg/mL; neutralization IC50 [31]: 0.04 µg/mL; neutralization IC50 [32]: 0.06 µg/mL; neutralization IC50 [33]: 0.23 µg/mL; neutralization IC50 [34]: 0.17 µg/mL; neutralization IC50 [35]: 0.175 µg/mL
NIH45-46^G54F IgG (antibody)	< 0.001	0.022	0.06	5.82	0.32	0.014	0.07	0.11	0.075	0.53	0.12	0.04	0.24	0.046	0.02	> 50	> 50	0.59	0.008	0.03	neutralization IC50 [21]: 0.03 µg/mL; neutralization IC50 [22]: 0.011 µg/mL; neutralization IC50 [23]: 0.56 µg/mL; neutralization IC50 [24]: 0.015 µg/mL; neutralization IC50 [25]: 0.007 µg/mL; neutralization IC50 [26]: > 50 µg/mL; neutralization IC50 [27]: 0.03 µg/mL; neutralization IC50 [28]: 0.17 µg/mL; neutralization IC50 [29]: > 50 µg/mL; neutralization IC50 [30]: 0.89 µg/mL; neutralization IC50 [31]: 0.03 µg/mL; neutralization IC50 [32]: 0.02 µg/mL; neutralization IC50 [33]: 0.1 µg/mL; neutralization IC50 [34]: 0.09 µg/mL; neutralization IC50 [35]: 0.08 µg/mL
